The values that follow are results of earlier work, collected in paper PMC3642679.

For orientation: Kd means the constant that tells how readily two partners part at equilibrium.

In the data set the target is sliding clamp beta (Escherichia coli) (UniProt P0A988).
Chain of UniProt P0A988 (P0A988 whole entry): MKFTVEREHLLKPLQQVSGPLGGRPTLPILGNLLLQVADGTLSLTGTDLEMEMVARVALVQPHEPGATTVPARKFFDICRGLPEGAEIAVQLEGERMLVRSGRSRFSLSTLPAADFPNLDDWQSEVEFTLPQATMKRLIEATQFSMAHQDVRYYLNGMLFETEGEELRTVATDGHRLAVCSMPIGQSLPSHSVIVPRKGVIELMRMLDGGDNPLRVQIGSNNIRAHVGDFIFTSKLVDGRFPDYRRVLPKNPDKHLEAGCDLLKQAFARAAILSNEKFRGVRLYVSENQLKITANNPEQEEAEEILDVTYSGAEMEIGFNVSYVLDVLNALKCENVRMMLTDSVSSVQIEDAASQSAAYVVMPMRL

Take Pol III alpha (from UniProt P10443): the equilibrium dissociation constant (Kd) was 1000 nM.
